In PMC3593554:

Biological target: formyl peptide receptor (FPR1) on U87 astrocytoma cells (human (endogenous in U87)) (UniProt P21462)
Test: flow cytometry on cells

UniProt P21462, sequence (P21462 whole entry): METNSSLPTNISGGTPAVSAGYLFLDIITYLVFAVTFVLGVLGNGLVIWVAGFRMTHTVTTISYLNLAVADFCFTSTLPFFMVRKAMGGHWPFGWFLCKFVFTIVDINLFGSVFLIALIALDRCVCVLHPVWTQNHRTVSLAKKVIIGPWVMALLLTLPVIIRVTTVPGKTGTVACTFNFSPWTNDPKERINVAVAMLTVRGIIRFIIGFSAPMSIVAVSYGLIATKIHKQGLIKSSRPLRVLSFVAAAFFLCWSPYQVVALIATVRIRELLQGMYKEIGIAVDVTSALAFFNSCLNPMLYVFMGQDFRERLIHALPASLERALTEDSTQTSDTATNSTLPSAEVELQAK

Chemotaxis Inhibitory Protein of S. aureus (CHIPS) (from UniProt A6QIG7 29-149) (natural protein)
percent inhibition of fMLF-FITC binding at 100 ug/ml CHIPS: 81%
